± gives the uncertainty stated by the source.
Experiment: protein stability index of a GFP-peptide fusion (yeast GPS) (PSI 1-4); higher = more stable; sorted into four equal gates, so the index is relative within each strain
How it was run: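 Each library plasmid carries Cherry plus GFP with a tiled 17-residue yeast protein peptide fused downstream, and the pooled library was carried in yeast. Mid-log cultures in leucine-free medium were sorted into four equal gates by GFP/Cherry ratio. Reads from Illumina sequencing of PCR-amplified plasmids from each gate were assigned to strains by barcodes. Per peptide, the protein stability index was computed as the summed products of gate read frequency and gate number.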

Row | Sequence | protein stability index (doa10∆) | protein stability index (pdr5∆) | protein stability index (san1∆) | protein stability index (ubr1∆)
1 | ASLNLLQLAPGAHLGRF [RPL4A] | 3.33 ± 0.16 | 3.03 ± 0.15 | 3.18 ± 0.092 | 3.26 ± 0.076
2 | GGKAGSAAKASQSRSAK [HTA1] | 3.17 ± 0.072 | 3.14 ± 0.071 | 2.84 ± 0.069 | 3.19 ± 0.048
3 | RLIVDPNIADYITAKNN [PRP8] | 2.15 ± 0.076 | 2.22 ± 0.066 | 2.36 ± 0.26 | 2.08 ± 0.052
4 | KILNIIKCSQSSHLSDN [POP5] | 1.97 ± 0.05 | 2.77 ± 0.069 | 2.28 ± 0.065 | 2.09 ± 0.053
5 | EHRRYDDQLKQRRQNIR [RPT4] | 2.62 ± 0.18 | 2.46 ± 0.18 | 2.29 ± 0.14 | 2.69 ± 0.12
6 | LTKFRQKLMQLVVLTDV [RGR1] | 1.26 ± 0.097 | 1.16 ± 0.074 | 1.24 ± 0.18 | 1.13 ± 0.05
7 | SDLKGKLSSAENANADL [YIL149C/MLP2] | 3.37 ± 0.15 | 3.35 ± 0.1 | 3.17 ± 0.12 | 3.17 ± 0.071
8 | NTLLVTGPFKVNGVPLR [RPL6B] | 2.74 ± 0.12 | 2.66 ± 0.082 | 2.63 ± 0.081 | 2.74 ± 0.045
9 | PLARNYIKSMDLISKKT [RPR2] | 2.78 ± 0.065 | 3.01 ± 0.063 | 2.77 ± 0.054 | 2.94 ± 0.039
10 | RGYWGTNLGQPHSLATK [RPS2] | 2.68 ± 0.23 | 3.18 ± 0.16 | 3.04 ± 0.1 | 2.85 ± 0.093
11 | NEDDLTVKLTEIVWTSS [RPO31] | 2.89 ± 0.093 | 3.04 ± 0.09 | 3.01 ± 0.074 | 3.14 ± 0.059
12 | ELLPHYPFVTNDDIEWM [YJR042W/NUP85] | 2.54 ± 0.13 | 2.93 ± 0.086 | 2.87 ± 0.065 | 2.96 ± 0.073
13 | KQLQQPKSSPLKKNNYN [SIR4] | 3.03 ± 0.089 | 2.98 ± 0.068 | 3.1 ± 0.039 | 3.07 ± 0.039
14 | QTKRWPTMYTRLCICSG [SIN4] | 1.4 ± 0.039 | 1.48 ± 0.038 | 1.51 ± 0.078 | 1.58 ± 0.03
15 | PPQAGDRSLADDYDYVM [RPB8] | 3.23 ± 0.11 | 2.99 ± 0.11 | 3.33 ± 0.084 | 3 ± 0.09
16 | GSVLLTLLNFVSNNVLR [ECM29] | 1.43 ± 0.054 | 1.31 ± 0.059 | 1.67 ± 0.1 | 2.03 ± 0.073
17 | ASEREELALIEEAYDNP [PRP8] | 3 ± 0.12 | 3.23 ± 0.096 | 3.35 ± 0.065 | 3.5 ± 0.14
18 | NSNGIAMASLYLTGGQQ [SMD1] | 2.44 ± 0.073 | 2.66 ± 0.06 | 2.63 ± 0.063 | 2.59 ± 0.059
19 | ERVPKTQLDKLRPRKDS [SMB1] | 3.1 ± 0.051 | 3.07 ± 0.062 | 3.09 ± 0.032 | 3.17 ± 0.045
20 | DLRLIKVPQQAAGKRIS [SMC1] | 1.36 ± 0.099 | 1.31 ± 0.2 | 1.1 ± 0.13 | 1.15 ± 0.07
21 | ANKEKKRAEKAARKAEK [RPL24B] | 3.34 ± 0.095 | 3.36 ± 0.082 | 3.58 ± 0.066 | 3.52 ± 0.078
22 | EEAKEESDDDMGFGLFD [RPP1A] | 3.09 ± 0.053 | 3.15 ± 0.061 | 3.22 ± 0.028 | 3.26 ± 0.045
23 | TMLENITLRGVENIERV [RPO21] | 3.23 ± 0.12 | 2.86 ± 0.1 | 2.82 ± 0.12 | 2.69 ± 0.058
24 | DDLPYYVNALADVLYKT [QCR2] | 2.78 ± 0.061 | 2.86 ± 0.052 | 2.63 ± 0.045 | 2.63 ± 0.042
25 | PGGAASKSVPTPSLPIA [SNF5] | 2.9 ± 0.062 | 3.07 ± 0.056 | 2.97 ± 0.036 | 3.06 ± 0.041
26 | PYLPKHYLVLLVAKFLY [YJR042W/NUP85] | 1.3 ± 0.084 | 1.28 ± 0.06 | 1.16 ± 0.15 | 1.21 ± 0.052
27 | VELPYGAHGYSGFYTFS [PRE1] | 2.92 ± 0.17 | 2.32 ± 0.17 | 2.9 ± 0.13 | 2.83 ± 0.095

Row | Sequence | protein stability index (doa10∆) | protein stability index (pdr5∆) | protein stability index (san1∆) | protein stability index (ubr1∆)
28 | TLRPRQYATVSKTHKTV [RPL34A] | 2 ± 0.16 | 2.12 ± 0.093 |  | 
29 | SKIFNESFPDDIPLAKA [CDC53] | 2.68 ± 0.056 | 2.89 ± 0.067 | 2.55 ± 0.049 | 2.82 ± 0.037
30 | GKIQENIPFWKHVGFEL [SRP72] | 2.65 ± 0.053 | 2.59 ± 0.055 | 2.37 ± 0.072 | 2.57 ± 0.035
31 | GFYQIKKIVDSKKLNLK [YMR129W/POM152] | 3.11 ± 0.12 | 2.98 ± 0.092 | 2.41 ± 0.24 | 2.62 ± 0.11
32 | RNAALRAKAEAAEFRYK [SCL1] | 2.9 ± 0.068 | 3.28 ± 0.072 | 2.93 ± 0.056 | 3 ± 0.057
33 | PNKVKTEDIRIRAQNFK [RRP6] | 2.75 ± 0.061 | 2.88 ± 0.082 | 2.56 ± 0.077 | 2.84 ± 0.039
34 | TEKKFTKEQYAAESKKY [RPL5] | 3.2 ± 0.16 | 3.07 ± 0.14 | 2.98 ± 0.075 | 3.02 ± 0.11
35 | LPYAIAGSGSTFIYGYC [PRE3] | 2.13 ± 0.14 | 1.42 ± 0.084 | 2.26 ± 0.12 | 2.29 ± 0.085
36 | APEKDIWVGEWKEVLAH [RPO31] | 2.47 ± 0.1 | 2.17 ± 0.082 | 2.16 ± 0.12 | 2.51 ± 0.062
37 | SVQLPDMAKLKKMMNTS [SWI3] | 2.14 ± 0.082 | 1.82 ± 0.092 | 1.91 ± 0.11 | 1.94 ± 0.082
38 | LNELYQTQQDLPKVRYN [NSL1] | 3.1 ± 0.042 | 3.12 ± 0.052 | 2.96 ± 0.039 | 3.03 ± 0.038
39 | RTLWPEFIPPDPTKVTE [SSN8] | 2.49 ± 0.042 | 2.73 ± 0.038 | 2.78 ± 0.04 | 2.671 ± 0.026
40 | SWASEGISKKTRIAGVV [RPS8A] | 2.54 ± 0.039 | 2.28 ± 0.034 | 2.17 ± 0.045 | 2.03 ± 0.034
41 | NNESNKNNNGDEKNKNN [MED2] | 3.21 ± 0.074 | 3.39 ± 0.066 | 3.33 ± 0.038 | 3.31 ± 0.051
42 | GIDPTRIYTNSFIDIME [RPO21] | 2.64 ± 0.048 | 2.5 ± 0.045 | 2.77 ± 0.048 | 2.53 ± 0.034
43 | RRTYNTLEDKFLLLAVN [ISW2] | 1.34 ± 0.084 | 1.67 ± 0.076 | 1.18 ± 0.19 | 1.28 ± 0.071
44 | DRKIQGWLGALTMANLP [ARP7] | 2.8 ± 0.066 | 3 ± 0.063 | 2.65 ± 0.069 | 2.81 ± 0.045
45 | IPSKNTPDASKPSFSFG [YLR335W/NUP2] | 2.51 ± 0.15 | 3.14 ± 0.23 | 2.44 ± 0.2 | 2.78 ± 0.085
46 | QKETQKVTKIWSKESNY [PRP28] | 1.63 ± 0.04 | 2.1 ± 0.041 | 2.3 ± 0.047 | 1.95 ± 0.027
47 | TLAITTVTNSKFRSSIL [RPN2] | 2.19 ± 0.046 | 2.3 ± 0.047 | 2.17 ± 0.054 | 2.52 ± 0.045
48 | SKYGMLLLRCDDRVDKK [POP3] | 3.34 ± 0.14 | 3.35 ± 0.087 | 3.03 ± 0.076 | 3.09 ± 0.077
49 | YINSDSVNPAMLPGSSN [RPO31] | 2.6 ± 0.1 | 2.74 ± 0.099 | 2.73 ± 0.15 | 2.83 ± 0.074
50 | IVPIFQLISAVLVSMGS [YJL039C/NUP192] |  | 2.39 ± 0.28 |  | 1.22 ± 0.091
51 | VEESSEKKQKTESQDVE [DPB4] | 2.8 ± 0.13 | 3.33 ± 0.12 | 3.23 ± 0.13 | 3.03 ± 0.07
52 | LNRQNDITDGKDYHTLA [RPS18A] | 3.13 ± 0.069 | 3.33 ± 0.061 | 3.27 ± 0.05 | 3.11 ± 0.06
53 | FTKPPANETDKRPTPPS [YOR098C/NUP1] | 3.03 ± 0.043 | 3.05 ± 0.048 | 3.14 ± 0.039 | 3.15 ± 0.037
54 | LESISHAGTAIGIMASD [PRE9] | 1.45 ± 0.14 | 2.15 ± 0.1 | 2.06 ± 0.14 | 1.5 ± 0.13

— the supplement of paper PMC9732359
